Source: patent US20200179510A1, “LOW DENSITY LIPOPROTEIN RECEPTOR RELATED PROTEIN 5 INHIBITION SUPPRESSES TUMOR FORMATION” (YALE UNIVERSITY, priority 2017, published 2020)

Tests used:
[1] = test system: tumor infiltrated leukocytes (CD8+ and NK1.1+ cells); test: Flow cytometry of tumor infiltrated leukocytes, MC38 tumors; type: in vivo, mouse; conditions: MC38, intratumoral DKK2 protein 600 ng/25 μl/tumor, three times every 8 hours
Protocol: Tumors were minced using scissors and scalpel blades and incubated with a digestion buffer [RPMI1640, 5% FBS, 1% PS, 25 mM HEPES and 300 U collagenase (Sigma C0130)] in a shaker for 2 h at 37° C. Disperse cells were filtered through a 70 μm cell strainer to eliminate clumps and debris. After centrifugation for 5 minutes (500×g) at 4° C., cell pellets were resuspended in the Red Blood Cell Lysis Buffer (Sigma R7757) and incubated at RT for 5 min to remove erythrocytes. Cells were pelleted again, resuspended and incubated in 0.05% Trypsin/EDTA at 37° C. for 5 min, followed by DNA digestion with the addition of Type I DNase (1 μg/ml final, Sigma D4263) for 5 min. Trypsin digestion was stopped by the addition of FBS to 5%, and cells were filtered again by a 40 μm cell strainer. Finally, the cells were pelleted again and resuspended in PBS at a concentration of […].
Cells in single cell suspension were fixed with 2% PFA (Santa-Cruz sc-281692). After washing with a Flow Cytometry Staining Buffer (eBioscience 00-4222-26), cells were stained with antibodies for cell surface markers for 1 hour on ice in the dark. For staining of intracellular proteins, the cells were washed and resuspended in the Permeabilization Buffer (BD 554723) and stained by antibodies in the Permeabilization Buffer for 1 hour on ice in the dark. […]

[2] = test system: mouse primary CD8+ T cells; test: Mouse primary CD8+ T cells; type: cell-based
Protocol: (§1) Mouse primary NK and CD8+ T cells were isolated from the spleens by using the NK cell and CD8+ T cell isolation kits according to the manufacturer's instructions (Miltenyi Biotec #130-090-864 and #130-104-075), respectively. Primary NK cells were cultured in RPMI-1640 (Gibco, 11875-093) supplemented with 10% FBS, penicillin (100 U/ml), streptomycin (100 μg/ml), 2-mercaptoethanol (500 μM) and HEPES (10 mM) at 37° C. supplemented with 5% CO2 in the presence of recombinant murine IL-15 (50 ng/ml) for 24 hours before treatment with DKK2, CHIR99021, or WNT3A. CD8+ T cells were cultured in the same culture medium and condition as NK cells, but supplemented with IL-15 (200 ng/ml) and IL-15 Rα (1 μg/ml recombinant Mouse IL-15 receptor alpha Fc chimera Protein from R&D) for 96 hours before DKK2 treatment. Mouse primary intraepithelial lymphocytes (IELs) were prepared as described in (Little et al., The Journal of Immunology 175, 6713-6722 (2005) and Li et al. Infect Immun 80, 565-574 (2012)). […]

LRP6 = target: T1, LRP6 (Homo sapiens, UniProt O75581); test: LRP internalization assay, LRP6; type: cell-based; conditions: HEK293 cells, DKK2 4 nM
T1 construct: endogenous in cells; host or cells: HEK293
T1 sequence (O75581 20-1613): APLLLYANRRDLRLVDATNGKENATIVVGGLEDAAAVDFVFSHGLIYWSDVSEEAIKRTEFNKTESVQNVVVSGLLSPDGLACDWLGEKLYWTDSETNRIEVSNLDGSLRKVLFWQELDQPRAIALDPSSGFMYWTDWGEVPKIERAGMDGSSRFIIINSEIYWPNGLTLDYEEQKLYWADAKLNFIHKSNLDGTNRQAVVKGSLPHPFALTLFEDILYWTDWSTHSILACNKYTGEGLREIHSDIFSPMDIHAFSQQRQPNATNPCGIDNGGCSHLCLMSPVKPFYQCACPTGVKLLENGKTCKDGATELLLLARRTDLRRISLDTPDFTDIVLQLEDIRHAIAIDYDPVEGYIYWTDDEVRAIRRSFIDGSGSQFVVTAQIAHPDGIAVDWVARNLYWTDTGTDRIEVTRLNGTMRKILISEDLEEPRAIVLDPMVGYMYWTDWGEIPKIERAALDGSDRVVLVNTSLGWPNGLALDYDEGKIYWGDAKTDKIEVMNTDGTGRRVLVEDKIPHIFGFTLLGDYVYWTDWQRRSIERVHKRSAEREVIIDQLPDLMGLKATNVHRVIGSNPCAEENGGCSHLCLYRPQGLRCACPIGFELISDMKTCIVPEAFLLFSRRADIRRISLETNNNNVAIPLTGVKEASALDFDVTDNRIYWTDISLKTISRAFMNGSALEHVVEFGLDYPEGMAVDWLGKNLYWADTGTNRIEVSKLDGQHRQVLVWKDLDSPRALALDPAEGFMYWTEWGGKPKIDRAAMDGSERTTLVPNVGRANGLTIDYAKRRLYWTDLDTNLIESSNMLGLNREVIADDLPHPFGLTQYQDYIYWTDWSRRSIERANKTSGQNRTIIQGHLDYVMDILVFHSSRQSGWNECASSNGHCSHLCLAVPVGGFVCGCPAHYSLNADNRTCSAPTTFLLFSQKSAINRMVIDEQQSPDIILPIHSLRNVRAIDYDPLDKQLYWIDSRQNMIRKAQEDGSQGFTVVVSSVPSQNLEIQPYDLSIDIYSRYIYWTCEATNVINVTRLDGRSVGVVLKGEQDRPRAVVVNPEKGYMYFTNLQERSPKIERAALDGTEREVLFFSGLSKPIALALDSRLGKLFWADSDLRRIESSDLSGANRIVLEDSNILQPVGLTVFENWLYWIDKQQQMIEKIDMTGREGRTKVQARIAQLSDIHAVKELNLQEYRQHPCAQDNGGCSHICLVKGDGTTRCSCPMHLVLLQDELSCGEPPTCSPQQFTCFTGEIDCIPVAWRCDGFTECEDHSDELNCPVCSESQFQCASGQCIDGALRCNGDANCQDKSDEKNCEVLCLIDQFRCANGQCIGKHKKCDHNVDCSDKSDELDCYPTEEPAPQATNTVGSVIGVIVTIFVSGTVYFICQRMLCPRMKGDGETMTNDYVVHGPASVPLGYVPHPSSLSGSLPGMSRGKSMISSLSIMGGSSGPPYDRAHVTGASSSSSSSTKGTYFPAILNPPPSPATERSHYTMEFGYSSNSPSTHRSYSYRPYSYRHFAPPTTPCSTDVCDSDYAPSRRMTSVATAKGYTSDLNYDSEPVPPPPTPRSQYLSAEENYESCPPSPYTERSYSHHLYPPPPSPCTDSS
Protocol: (§2) HEK293 cells were treated with mock or recombinant mouse DKK2 protein (4 nM) in culture medium for duration indicated. The cells were washed with pre-cold PBS and cell surface proteins were biotinylated with 0.5 mg/ml of EZ-Link Sulfo-NHS-SS-Biotin (Thermo Fisher, 21445) in a PBS buffer on ice for 30 min. The reaction was stopped by addition of PBS containing ice-cold 50 mM NH4Cl, followed by repeated washes with ice-cold PBS. The cells were then lysed with in a buffer containing 1.25% Triton X-100, 0.25% SDS, 50 mM Tris HCl PH8.0, 150 mM NaCl, 5 mM EDTA, 5 mg/ml iodoacetamide, 10 ug/ml PMSF, and the Roche proteinase inhibitor cocktail. After centrifugation, aliquots were taken as lysate controls, and the rest of supernatants were used in pull-down with NeutrAvidin beads (Thermo Fisher, 29200), followed by analysis by Western blotting.

human NK cells = test: Human NK cells cultured with IL-15; type: cell-based; conditions: human IL-15 50 ng/ml, 10 nM human DKK2, 24 hour
Protocol: Peripheral blood mononuclear cells from normal humans were purchased from ZenBio (SER-PBMC-200). Human NK cells were isolated from the PBMCs by using the human NK cell isolation kit according to the manufacturer's instruction (Miltenyi Biotec #130-092-657). Human NK cells were cultured in RPMI-1640 (Gibco, 11875-093) supplemented with 10% heat-inactivated FBS, penicillin (100 U/ml), streptomycin (100 μg/ml), 2-mercaptoethanol (500 μM) and HEPES (10 mM) at 37° C. supplemented with 5% CO2 in the presence of recombinant human IL-15 (50 ng/ml) before treatment with recombinant human DKK2 protein.

[3] = test system: primary mouse NK cells with MC38 or YUMM1.7 cells; test: NK and tumor cell co-culture; type: cell-based; conditions: NK cells pre-treated with DKK2 8 nM 24 hrs, MC38 7:1
Protocol: Primary NK cells were isolated from the spleens as described above and cultured in the presence of 50 ng/ml recombinant murine IL-15 for 24 hours. Meanwhile, tumor cells were plated in the 96 well plate for overnight. NK cells were added into the tumor cells at 7:1 radio in the presence of the IgG3 antibody or anti-DKK2 5F8 for 9 hours at 37° C. For testing the effect of DKK2 in co-culture, isolated NK cells were cultured in the presence of 50 ng/ml recombinant murine IL-15 for 24 hours and then cultured in the presence or absence of DKK2 for another 24 hours before the NK cells were added to pre-seeded MC38 cells at 7:1 (NK:MC38) radio. The numbers of live tumor cells were determined by a Guava flow cytometer (EMDmillipore), whereas the cell apoptosis was assessed by flow cytometry using an Annexin V apoptosis detection kit (eBioscience, 88-8007).

LRP5 = target: T2, LRP5 (Homo sapiens, UniProt O75197); test: LRP internalization assay, LRP5; type: cell-based; conditions: HEK293 cells, DKK2 4 nM
T2 construct: endogenous in cells; host or cells: HEK293
T2 sequence (O75197 32-1615): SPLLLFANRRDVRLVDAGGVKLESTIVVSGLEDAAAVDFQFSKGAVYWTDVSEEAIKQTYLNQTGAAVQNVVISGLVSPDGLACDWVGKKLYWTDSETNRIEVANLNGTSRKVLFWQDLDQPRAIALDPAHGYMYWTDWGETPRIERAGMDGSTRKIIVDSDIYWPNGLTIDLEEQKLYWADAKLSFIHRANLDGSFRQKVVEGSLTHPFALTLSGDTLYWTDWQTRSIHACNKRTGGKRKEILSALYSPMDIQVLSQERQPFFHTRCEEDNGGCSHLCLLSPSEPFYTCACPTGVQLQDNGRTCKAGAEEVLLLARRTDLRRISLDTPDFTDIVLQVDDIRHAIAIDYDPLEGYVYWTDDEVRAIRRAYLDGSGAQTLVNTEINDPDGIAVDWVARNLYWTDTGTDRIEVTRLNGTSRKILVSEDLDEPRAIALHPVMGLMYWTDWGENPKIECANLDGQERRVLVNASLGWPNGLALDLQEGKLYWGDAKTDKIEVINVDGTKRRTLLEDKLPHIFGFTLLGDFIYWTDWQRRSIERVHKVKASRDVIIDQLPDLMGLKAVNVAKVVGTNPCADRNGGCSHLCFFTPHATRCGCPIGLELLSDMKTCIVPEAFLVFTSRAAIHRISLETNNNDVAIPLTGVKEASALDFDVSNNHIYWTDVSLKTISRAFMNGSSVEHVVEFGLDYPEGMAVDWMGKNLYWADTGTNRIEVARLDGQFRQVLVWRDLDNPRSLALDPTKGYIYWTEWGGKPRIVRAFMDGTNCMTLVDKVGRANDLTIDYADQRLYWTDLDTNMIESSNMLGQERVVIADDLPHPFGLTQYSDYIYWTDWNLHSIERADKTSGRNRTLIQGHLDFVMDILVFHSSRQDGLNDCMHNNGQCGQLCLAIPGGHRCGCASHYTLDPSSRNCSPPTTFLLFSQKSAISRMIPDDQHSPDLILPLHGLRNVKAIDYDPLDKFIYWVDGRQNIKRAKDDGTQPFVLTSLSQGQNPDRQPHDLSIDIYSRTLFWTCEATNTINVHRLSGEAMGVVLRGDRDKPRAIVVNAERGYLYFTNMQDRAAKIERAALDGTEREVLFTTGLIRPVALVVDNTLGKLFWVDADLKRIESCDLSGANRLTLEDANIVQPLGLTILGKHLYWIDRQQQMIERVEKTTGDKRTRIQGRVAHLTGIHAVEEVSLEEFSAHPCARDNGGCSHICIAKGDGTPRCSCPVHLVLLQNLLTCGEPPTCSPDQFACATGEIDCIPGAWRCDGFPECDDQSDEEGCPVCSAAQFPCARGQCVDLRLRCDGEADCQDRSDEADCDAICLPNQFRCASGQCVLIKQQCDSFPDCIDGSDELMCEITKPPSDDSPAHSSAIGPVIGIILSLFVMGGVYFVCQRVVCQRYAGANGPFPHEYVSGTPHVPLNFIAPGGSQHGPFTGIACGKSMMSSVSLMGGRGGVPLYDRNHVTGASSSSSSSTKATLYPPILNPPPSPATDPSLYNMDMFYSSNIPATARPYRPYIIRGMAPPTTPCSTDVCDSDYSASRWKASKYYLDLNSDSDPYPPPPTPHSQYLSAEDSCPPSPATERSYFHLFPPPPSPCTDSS
Protocol: as §2

[4] = test system: Wnt reporter gene TOPFlash; test: Wnt reporter gene (TOPFlash) assay in HEK293 cells; type: cell-based
Protocol: The Stat5 reporter assays were done in HEK293T cells for activated JAK1-induced activity or in those stably expressing JAK3, IL2/15Rβ and the common receptor γ subunit for IL15 induced activity. Cells were seeded at 8×10^4 cells per well in 48 well plate. The next day, cells were transfected by Lipofectamine 2000 (Invitrogen) with the pGL4.52-STAT5-Luciferase (Promega) and tagRFP (internal control) plasmids together with other plasmids expressing genes of interest. The total amount of plasmid was kept at 125 ng per well. The cells were added 24 hours after transfection with IL15/IL15Rα-Fc complex or mock. Six hours later, the cells were lysed and subjected to RFP fluorescence and luciferase luminescence measurement using an Envision Multilabel plate reader. The reporter gene activity is shown after being normalized against RFP readings. The LEF reporter assay was carried out in HEK293 cells that were transfected with the TOPFlash and GFP plasmids. The rest is the same as above. The reporter gene activity is shown after being normalized against GFP readings.
A functional mouse monoclonal anti-DKK2 antibody (5F8) was developed to specifically target and neutralize DKK2, but to not cross react with DKK-1. […]

[5] = test system: phospho-STAT5 nuclear localization; test: Immunocytostaining of phospho-STAT5 localization in NK cells; type: cell-based, mouse
Protocol: They were then placed on poly-lysine coated coverslips and incubated for 30 min at room temperature. Cells were fixed with 4% PFA for 10 min at room temperature and permeabilized with ice-cold methanol for 10 min at −20° C. After rinsed with PBS for 3 times, cells were blocked with a blocking buffer (5% normal donkey serum and 0.5% triton in PBS) for 1 hr at room temperature. Primary antibodies were then diluted in PBS with 0.5% BSA and applied to cells with overnight incubation at 4° C. Cells were rinsed with PBS for 3 times and incubated with diluted fluorochrome-conjugated secondary antibodies (in PBS with 1% BSA) for 1 hr at room temperature. Finally, cells were rinsed with PBS for 3 times and mounted with Prolong Gold Antifade solution (Thermo Fisher) for confocal microscopy.

primary mouse NK cells = test: IL-15-cultured primary mouse NK cells (flow cytometry, Western); type: cell-based
Protocol: Cells in single cell suspension were fixed with 2% PFA (Santa-Cruz sc-281692). After washing with a Flow Cytometry Staining Buffer (eBioscience 00-4222-26), cells were stained with antibodies for cell surface markers for 1 hour on ice in the dark. For staining of intracellular proteins, the cells were washed and resuspended in the Permeabilization Buffer (BD 554723) and stained by antibodies in the Permeabilization Buffer for 1 hour on ice in the dark. The cells were then pelleted and resuspended in the Flow Cytometry Staining Buffer for flow cytometry analysis.
Mouse primary NK and CD8+ T cells were isolated from the spleens by using the NK cell and CD8+ T cell isolation kits according to the manufacturer's instructions (Miltenyi Biotec #130-090-864 and #130-104-075), respectively. Primary NK cells were cultured in RPMI-1640 (Gibco, 11875-093) supplemented with 10% FBS, penicillin (100 U/ml), streptomycin (100 μg/ml), 2-mercaptoethanol (500 μM) and HEPES (10 mM) at 37° C. supplemented with 5% CO2 in the presence of recombinant murine IL-15 (50 ng/ml) for 24 hours before treatment with DKK2, CHIR99021, or WNT3A. CD8+ T cells were cultured in the same culture medium and condition as NK cells, but supplemented with IL-15 (200 ng/ml) and IL-15 Rα (1 μg/ml recombinant Mouse IL-15 receptor alpha Fc chimera Protein from R&D) for 96 hours before DKK2 treatment. Mouse primary intraepithelial lymphocytes (IELs) were prepared as described in (Little et al., The Journal of Immunology 175, 6713-6722 (2005) and Li et al. Infect Immun 80, 565-574 (2012)). In brief, the small intestine was everted, divided into four pieces, and washed twice in phosphate-buffered saline (PBS) containing 100 U/ml penicillin/streptomycin The specimens were then incubated with stirring at 37° C. in prewarmed Ca2+ and Mg2+-free Hanks' solution containing 100 U/ml penicillin-streptomycin, 5% fetal calf serum (FCS), 2 mM dithiothreitol (DTT), and 5 mM EDTA for 30 min, followed by vigorous shaking for 30 s. The supernatants were passed over two nylon wool columns to remove undigested tissue debris. The lymphocytes obtained were pooled and enriched on a discontinuous (40% and 70%) Percoll density gradient. Cells at the interface between the 40% and […], fractions (IELs) were collected for treatment with IL-15 (200 ng/ml) and DKK2 (200 ng/ml), followed by flow analysis.

[6] = test system: CD8+ intraepithelial cells from intestines; test: Mouse primary intraepithelial lymphocytes; type: cell-based; conditions: IL-15, 10 nM DKK2, 24 hour
Protocol: as §1

B1: DKK2: Recombinant Dickkopf 2 protein (mouse; human for human NK cells), also used as conditioned medium (protein)
chain: KLNSIKSSLGGETPAQSANRSAGMNQGLAFGGSKKGKSLGQAYPCSSDKECEVGRYCHSPHQGSSACMLCRRKKKRCHRDGMCCPGTRCNNGICIPVTESILTPHIPALDGTRHRDRNHGHYSNHDLGWQNLGRPHSKMPHIKGHEGDPCLRSSDCIDGFCCARHFWTKICKPVLHQGEVCTKQRKKGSHGLEIFQRCDCAKGLSCKVWKDATYSSKARLHVCQKI
[1]
  tumor immune responses elicited by PD-1 blockade: inhibited PD-1 blockade-induced increases in the numbers of tumor-infiltrated CD45+ and CD8+ cells and activation of CD8+ and NK cells
[2]
  T cell receptor-mediated activation of primary T cells: does not inhibit T cell receptor-mediated activation
[2]; IL-15+IL15Rα-Fc 4 days, DKK2 10 nM 24 hours
  IL-15-mediated activation of mouse primary CD8+ T cells: directly suppresses mouse primary CD8+
LRP6
  internalization of LRP6: not LRP6
Human NK cells
  granzyme B expression in human NK cells: inhibit granzyme B expression in human NK cells
[3]
  ability of pre-treated NK cells to cause tumor cell apoptosis and death: reduced ability to cause tumor cell apoptosis and death
LRP5
  internalization of LRP5: induces internalization of LRP5
[4]; DKK2 5 nM, Wnt3a 2 nM, CHIR 1 μM, 6 hrs (FIG. 10D)
  Wnt reporter gene activity: inhibited
[4]; HEK293, TOPFlash, conditioned medium (FIG. 1E)
  Wnt reporter activity: inhibited Wnt signaling
[5]; DKK2-treated NK cells
  co-localization of phospho-STAT5 with EEA1: partially co-localized with early endosome marker
[5]; IL-15, DKK2-treated primary NK cells
  localization of phospho-STAT5 in NK cells: cytosolic localization of phospho-STAT5 was readily detected
[5]; LRP5-/- NK cells
  phospho-STAT5 nuclear localization in NK cells lacking LRP5: failed to cause impairment of phospho-STAT5 nuclear localization
Primary mouse NK cells; DKK2-treated samples
  granzyme B (Western): reduced granzyme B
  perforin (Western): reduced perforin
Primary mouse NK cells; DKK2 treatment, Western
  phosphorylated STAT5, ERK and AKT stimulated by IL-15: No notable changes in phosphorylated STAT5, ERK, and AKT
Primary mouse NK cells; FIG. 4F
  dose dependence of inhibition of NK cell activation: dose-dependent
Primary mouse NK cells; IL-15 50 ng/ml 24 hrs, then DKK2 8 nM 24 hours
  granzyme B and NK activation markers: significant reductions in granzyme B as well as a number of other NK activation markers, including CD69, IFNY, CD107a, and CD314
Primary mouse NK cells; LRP5-/- NK cells
  activation of LRP5-deficient NK cells: failed to inhibit
Primary mouse NK cells; Lrp6-/- NK cells
  activation of primary NK cells lacking LRP6: could still inhibit the activation
[6]
  activation of CD8+ intraepithelial cells: directly suppresses
